# According to the supplement of paper PMC9170038:
# System: MS2 coat protein
# Assay: apparent KD of MS2 coat protein; designed switch direction (-1 OFF switch, 1 ON switch): -1; higher = weaker reporter binding
# In short: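 For each design, the apparent KD is the median over clusters of curves fitted to normalised cluster fluorescence. Clusters held RNA switches with common flanks, transcribed on Illumina chips by stalled E. coli RNA polymerase. These were titrated with SNAP-549-labelled MS2 coat protein, doubling from 0.7 or 1.5 nM to 3 µM, without input, with 200 uM small-molecule ligand, or with an oligonucleotide input.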
# [1] = input ligand: microRNA oligo, concentration not stated
# [2] = Eterna round: R95, input ligand: FMN 200 uM
# [3] = Eterna round: R95, input ligand: microRNA oligo, concentration not stated
# [4] = Eterna round: R95, input ligand: none
Sequence,apparent KD of MS2 coat protein (input ligand: FMN 200 uM) [nM],apparent KD of MS2 coat protein [1] [nM],apparent KD of MS2 coat protein (input ligand: none) [nM],further results
"UACAUGAGGAUCACCCAUGUUUUGUCGUGUAUGGUAUUUAUCUAGGAUAUCAUUCUAUUUAUUUAUGAGAAGGAGAAUAUUAAU [JMF's solution 98] (Eterna round: R96, puzzle: Exclusion NG 3)",33.4,23.5,29.7,–
"UACAUGAGGAUCACCCAUGUUUUGUCGUGUAUGGUAUUUAUCUAGGAUAUCAUUUUAAUUAGUUAUGAGAAGGAGAAUAUUAAU [JMF's solution 87] (Eterna round: R96, puzzle: Exclusion NG 3)",33.7,24.4,32.5,–
"UACAUGAGGAUCACCCAUGUUUUGUCGUGUAUGGUAUUUAUCUAGGAUAUCAUUUUAUCUAGUUAUGAGAAGGAGAAUAUUAAU [JMF's solution 89] (Eterna round: R96, puzzle: Exclusion NG 3)",–,26.6,–,–
"UACGAACUAGGAUAUGCAAUGGGCUCGCUUUCCUUCGAUAAACUUGAGGAUCACCCAAGUAGAAGGAGUUUGUA [Mod 38 - Jieux - Exclusion 2] (Eterna round: R97, puzzle: Exclusion 2)",40.8,–,16.6,–
"UACGGUCCUAACAUGAGGAUCACCCAUGUAACAAAAGAAACCUAGGAUAUCCGCGCCGGAAGGAAGGAGAAGGAGGGCGUGGCA [Ededti] (Eterna round: R96, puzzle: Exclusion NG 3)",50.7,34.3,51.8,–
"UAGCAGAGAGGAUAUACAUUCAUCACCCGCGCAACAAGCGCACAUGAGGAUCACCCAUGUAGAAGGCUCGUGCC [EX2 C.20] (Eterna round: R97, puzzle: Exclusion 2)",53.6,–,31.7,–
"UAGCUUUAUGUUAGGAUAUUCGCGCAUAUACUGCCGAAGAAGGAACAUGAGGAUCACCCAUGUACACGCCUAUG [Eternabot (L1) Solution 60] (Eterna round: R97, puzzle: Brourd's mod of Exclusion 4)",81.1,–,20.9,–
UAGGAGUCAGGAUAUGCGAGAGAUUGAAGUAUGGGAAGUGAGCAGAAGGGACAUGAGGAUCACCCAUGUGAGAA [JR_Exclu4_Sub094] (puzzle: Exclusion 4),–,–,–,apparent KD of MS2 coat protein [2]: 52.1 nM; apparent KD of MS2 coat protein [3]: 46.8 nM; apparent KD of MS2 coat protein [4]: 45 nM
UAUAAAACAUAGGAUAUCGAAUAUAUCAUUUAACGAGAAGGAUGAACAUGAGGAUCACCCAUGUGGUAUCAUGG [Mat - Exclusion 6 - JL Mod - D8] (puzzle: Exclusion 6),–,–,–,apparent KD of MS2 coat protein [2]: 286 nM; apparent KD of MS2 coat protein [3]: 262 nM; apparent KD of MS2 coat protein [4]: 172 nM
"UAUAACAGAGGAUAUGCGAAUAAAUAAAACUUUUUUUUUUAACAUGAGGAUCACCCAUGUAGAAGGCUGAUAUU [Ex2 #22] (Eterna round: R97, puzzle: Exclusion 2)",28.5,–,51.6,–
UAUACACAUGAGGAUCACCCAUGUGAGGAUAUGUAAAAAAAACCGACGGUUUUUUUUUACAGAAGGCACAUAUA [JR_Exclusion1_Sub026] (puzzle: Exclusion 1),–,–,–,apparent KD of MS2 coat protein [3]: 52.5 nM
UAUACUAGAUAGGAUAUACUAUAUAUAUUUUUCGUAGAAGGAUCUACAUGAGGAUCACCCAUGUUAACAGCAGU [JR_E6_Sub007] (puzzle: Exclusion 6),–,–,–,apparent KD of MS2 coat protein [2]: 45 nM; apparent KD of MS2 coat protein [3]: 42.9 nM; apparent KD of MS2 coat protein [4]: 41.5 nM
"UAUAUAUAGUAAGGAUAUGUAAUCAUUUUAUAAACAGAAGGUACUGACAUGAGGAUCACCCAUGUUUUAGUGUGGGCAUGUAGA [JMF's solution 31] (Eterna round: R96, puzzle: Exclusion NG 1)",–,64.6,–,–
"UAUAUAUAGUAAGGAUAUGUAUAUAUUAUAUAAACAGAAGGUACUGACAUGAGGAUCACCCAUGUUUUAGUGUGGGCAUGUAGA [JMF's solution 60] (Eterna round: R96, puzzle: Exclusion NG 1)",–,53.3,–,–
"UAUAUAUAGUAAGGAUAUGUAUAUAUUUUAUUAACAGAAGGUACUGACAUGAGGAUCACCCAUGUUUUAGUGUGGGCAUGUAGA [JMF's solution 69] (Eterna round: R96, puzzle: Exclusion NG 1)",–,55.2,–,–
"UAUAUAUAGUAAGGAUAUGUAUUAAUUUUAUAAACAGAAGGUACUGACAUGAGGAUCACCCAUGUUUUAGUGUGGGCAUGUAGA [JMF's solution 9] (Eterna round: R96, puzzle: Exclusion NG 1)",–,72.8,–,–

Sequence,apparent KD of MS2 coat protein (input ligand: FMN 200 uM) [nM],apparent KD of MS2 coat protein [1] [nM],apparent KD of MS2 coat protein (input ligand: none) [nM],further results
"UAUAUAUAGUAAGGAUAUGUAUUUAGUUUAUAAACAGAAGGUACUGACAUGAGGAUCACCCAUGUUUUAGUGUGGGCAUGUAGA [JMF's solution 14] (Eterna round: R96, puzzle: Exclusion NG 1)",–,71.2,–,–
"UAUAUGCAAGCGAGAUCCCACAUGAGGAUCACCCAUGUAAUAAAUAAGCACAGAAUUACUGUGAAAGCUCGUCUUAU [Winner reversed engineered 37] (Eterna round: R97, puzzle: Sensor, turn-off variant 1)",92.5,–,105,–
"UAUAUGUCAGGAUAUUAGUUGAGGUGGAAUUUAGCCUAUGCUGAGAAGGGACAUGAGGAUCACCCAUGUUCCUC [JR_Ex4_Sub011] (Eterna round: R97, puzzle: Exclusion 4)",93.9,–,19.1,–
"UAUAUGUCAGGAUAUUAGUUGUGUUCGAAUUUCACUUCUGCUGAGAAGGGACAUGAGGAUCACCCAUGUUCCUC [JR_Ex4_Sub006] (Eterna round: R97, puzzle: Exclusion 4)",17.1,–,15.9,–
"UAUGGUAAAGUCAGGAUAUACGUACGUCGUUCUAGGUAGAAGGGACAUGAGGAUCACCCAUGUAUGAUAGUAAA [Ex4 #35] (Eterna round: R97, puzzle: Brourd's mod of Exclusion 4)",36.1,–,41.6,–
"UAUGGUUAAGUCAGGAUAUACUAAUAGAAAUCUGAGUAGAAGGGACAUGAGGAUCACCCAUGUAUGGUAGUGUU [Ex4 #58] (Eterna round: R97, puzzle: Brourd's mod of Exclusion 4)",77.1,–,55.2,–
"UAUGUGUCAGGAUAUUAAUUAUAGGAGAAUGUGACGAUGAUUAAGAAGGGACAUGAGGAUCACCCAUGUUCAUC [JR_Ex4_Sub025] (Eterna round: R97, puzzle: Exclusion 4)",21.3,–,19,–
"UAUGUUAGCACAGGAUAUUGUUAUUAUUUAAUUCAAGAAGGGUGUACAUGAGGAUCACCCAUGUUAUGGUUUUAUCUUUUACAA [JR_ExcNG1_Sub013] (Eterna round: R96, puzzle: Exclusion NG 1)",–,957,–,–
"UAUUAACAAGCGAGAUCCUACAUGAGGAUCACCCAUGUGCUCGUCUUAUAAGGUACUGUGACGAAAGUCACGGUACC [Eli 91 v37] (Eterna round: R97, puzzle: Sensor, turn-off variant 1)",19.5,–,21,–
"UAUUAACAAGUAAGAUCCUACAUGAGGAUCACCCAUGUGCUCGUCUUAUAAGGUACUGUGACGAAAGUCACGGUACC [Sensor 3, v1 - 72] (puzzle: Sensor v3, turn-off variant 1)",–,–,–,apparent KD of MS2 coat protein [2]: 37.6 nM; apparent KD of MS2 coat protein [3]: 46.7 nM; apparent KD of MS2 coat protein [4]: 39.4 nM
UAUUAAUGCAAGGAUAUGCUAUUAAUUUAUUUUGCAGAAGGUGCAACAUGAGGAUCACCCAUGUUGGAGGGUAU [JR_E6_Sub028] (puzzle: Exclusion 6),–,–,–,apparent KD of MS2 coat protein [3]: 19.3 nM
UAUUACUCAGGAUAUAUGAUGUGAAACAUGAGGAUCACCCAUGUAAUAUUAUGGAUGUAAAUAGAAGGGAGAUUUU [Mat - Exclusion 5 - JL mod - D18] (puzzle: Exclusion 5),–,–,–,apparent KD of MS2 coat protein [2]: 51.8 nM; apparent KD of MS2 coat protein [3]: 68.4 nM; apparent KD of MS2 coat protein [4]: 54.8 nM
"UAUUAGCAAGCAAGAUCCCACAUGAGGAUCACCCAUGUGCUCGUCUUAUAAGGUACUGUGACGAAAGUCACGGUACC [Sensor 3, v1 - 83] (puzzle: Sensor v3, turn-off variant 1)",–,–,–,apparent KD of MS2 coat protein [2]: 36.8 nM; apparent KD of MS2 coat protein [3]: 1080 nM; apparent KD of MS2 coat protein [4]: 38 nM
"UAUUAGCAAGCAAGAUCCCACAUGAGGAUCACCCAUGUGCUCGUCUUAUAAGGUACUGUGACGAAAGUCACGGUACC [Sensor 3, v1 - 95 v2] (Eterna round: R97, puzzle: Sensor, turn-off variant 1)",52.5,–,45.4,–
"UAUUAGCAAGCAAGGUCCCACAUGAGGAUCACCCAUGUGCUCGUCUUAUAAGGUACUGUGACGAAAGUCACGGUACC [Sensor 3, v1 - 92] (puzzle: Sensor v3, turn-off variant 1)",–,–,–,apparent KD of MS2 coat protein [2]: 46.6 nM; apparent KD of MS2 coat protein [4]: 53.1 nM
"UAUUAGCAAGCGAGAUCCCACAUGAGGAUCACCCAUGUAGCUCGUCUUAUAAAGGUUUCGACGAAAACGUCGAGACC [Eli 91 v27] (Eterna round: R97, puzzle: Sensor, turn-off variant 1)",17.5,–,16.1,–
